Literature values, collected in patent US20200247855A1, “THERAPY AND DIAGNOSTICS” (OXFORD UNIVERSITY INNOVATION LIMITED, priority 2017, published 2020).

What was measured:
CCL8_HUMAN = molecular target: T1, CCL8_HUMAN (Homo sapiens, UniProt P80075); conditions: read-out: Kd, CCL8_HUMAN, previously described evasins; data obtained from publications [20-22,32]; cited from earlier work
T1 sequence (P80075 24-99): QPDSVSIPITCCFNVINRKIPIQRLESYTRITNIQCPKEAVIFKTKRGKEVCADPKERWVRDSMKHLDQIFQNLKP

CCL19_HUMAN = molecular target: T2, CCL19_HUMAN (Homo sapiens, UniProt Q99731); conditions: read-out: Kd, CCL19_HUMAN, previously described evasins; data obtained from publications [20-22,32]; cited from earlier work
T2 sequence (Q99731 22-98): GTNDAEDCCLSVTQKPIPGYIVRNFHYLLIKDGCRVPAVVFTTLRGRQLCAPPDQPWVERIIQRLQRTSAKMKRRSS

B1: EVASIN4: previously described tick CKBP evasin 4, from Rhipicephalus sanguineus (protein, listed as Rhipicephalus sanguineus)
chain: EVPQMTSSSAPDLEEEDDYTAYAPLTCYFTNSTLGLLAPPNCSVLCNSTTTWFNETSPNNASCLLTVDFLTQDAILQENQPYNCSVGHCDNGTCAGPPRHAQCW
- Kd (CCL8_HUMAN): 0.25 nM
- Kd (CCL19_HUMAN): 0.14 nM
